This is an account of results in US20260250410A1, “ANTIBODY AND USE THEREOF” (SICHUAN HUIYU PHARMACEUTICAL CO., LTD., priority 2022, published 2026).

T1: HuCDCP1-C (Homo sapiens, UniProt Q9H5V8)
T1 construct: made in house; host or cells: HEK-293T
T1 sequence (Q9H5V8 30-667): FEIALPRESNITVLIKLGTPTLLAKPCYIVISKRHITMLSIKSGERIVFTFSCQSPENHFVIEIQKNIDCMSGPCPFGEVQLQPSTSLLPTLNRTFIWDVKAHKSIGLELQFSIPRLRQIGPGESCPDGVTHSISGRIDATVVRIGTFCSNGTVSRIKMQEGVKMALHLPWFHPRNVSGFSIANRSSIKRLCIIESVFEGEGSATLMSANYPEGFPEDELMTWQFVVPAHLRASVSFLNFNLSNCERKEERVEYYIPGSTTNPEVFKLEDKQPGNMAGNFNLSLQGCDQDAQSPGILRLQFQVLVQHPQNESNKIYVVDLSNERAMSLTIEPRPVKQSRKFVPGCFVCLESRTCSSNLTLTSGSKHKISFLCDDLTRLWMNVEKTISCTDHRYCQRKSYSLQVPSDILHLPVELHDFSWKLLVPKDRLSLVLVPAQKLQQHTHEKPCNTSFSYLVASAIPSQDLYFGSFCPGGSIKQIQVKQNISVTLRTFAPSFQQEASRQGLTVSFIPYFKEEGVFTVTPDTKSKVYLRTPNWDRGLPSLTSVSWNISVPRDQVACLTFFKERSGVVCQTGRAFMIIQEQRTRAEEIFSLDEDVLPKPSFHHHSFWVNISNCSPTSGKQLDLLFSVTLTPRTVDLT

B1: 1CP-127: humanized anti-CDCP1 antibody produced by 3C11; VH SEQ ID NO: 342, VL SEQ ID NO: 351 (antibody, V domains shown)
VH: QVQLVQSGAEVKKPGASVKVSCKASGYNFISYWLHWVRQAPGQGLEWMGGIYPGNTDTTYNQKFKGRVTVTAVTSTSTVYMELSSLRSEDTAVYYCIRYDYDRGMDYWGQGTLVTVSS
VL: DIQMTQSPSSLSASVGDRVTITCRASEDIYYRLAWYQQKPGKAPKLLISGATALETGVPSRFSGSGSGKDYTFTISSLQPEDIATYYCQHYWNIPWTFGQGTKVEIK
modifications: humanized antibody 3C11 heavy chain variable region 04; humanized antibody 3C11 light chain variable region 01
B2: 1CP-132: humanized anti-CDCP1 antibody produced by 3C11; VH SEQ ID NO: 339, VL SEQ ID NO: 353 (antibody, V domains shown)
VH: QVQLVQSGAEVKKPGASVKVSCKASGYNFISYWLHWVRQAPGQGLEWMGGIYPGNTDTTYNQKFKGRVTMTRDTSTSTVYMELSSLRSEDTAVYYCIRYDYDRGMDYWGQGTLVTVSS
VL: DIQMTQSPSSLSASVGDRVTITCRASEDIYYRLAWYQQKPGNAPKLLISGATALETGVPSRFSGSGSGKDYTLTISSLQPEDIATYYCQHYWNIPWTFGQGTKVEIK
modifications: humanized antibody 3C11 heavy chain variable region 01; humanized antibody 3C11 light chain variable region 03
B3: 1CP-133: humanized anti-CDCP1 antibody produced by 3C11; VH SEQ ID NO: 340, VL SEQ ID NO: 353 (antibody, V domains shown)
VH: QVQLVQSGAEVKKPGASVKVSCKASGYNFISYWLHWVRQAPGQGLEWMGGIYPGNTDTTYNQKFKGRVTMTADTSTSTVYMELSSLRSEDTAVYYCIRYDYDRGMDYWGQGTLVTVSS
VL: DIQMTQSPSSLSASVGDRVTITCRASEDIYYRLAWYQQKPGNAPKLLISGATALETGVPSRFSGSGSGKDYTLTISSLQPEDIATYYCQHYWNIPWTFGQGTKVEIK
modifications: humanized antibody 3C11 heavy chain variable region 02; humanized antibody 3C11 light chain variable region 03
B4: 1CP-131: humanized anti-CDCP1 antibody produced by 3C11; VH SEQ ID NO: 342, VL SEQ ID NO: 352 (antibody, V domains shown)
VH: QVQLVQSGAEVKKPGASVKVSCKASGYNFISYWLHWVRQAPGQGLEWMGGIYPGNTDTTYNQKFKGRVTVTAVTSTSTVYMELSSLRSEDTAVYYCIRYDYDRGMDYWGQGTLVTVSS
VL: DIQMTQSPSSLSASVGDRVTITCRASEDIYYRLAWYQQKPGKAPKLLISGATALETGVPSRFSGSGSGKDYTLTISSLQPEDIATYYCQHYWNIPWTFGQGTKVEIK
modifications: humanized antibody 3C11 heavy chain variable region 04; humanized antibody 3C11 light chain variable region 02
B5: 1CP-135: humanized anti-CDCP1 antibody produced by 3C11; VH SEQ ID NO: 342, VL SEQ ID NO: 353 (antibody, V domains shown)
VH: QVQLVQSGAEVKKPGASVKVSCKASGYNFISYWLHWVRQAPGQGLEWMGGIYPGNTDTTYNQKFKGRVTVTAVTSTSTVYMELSSLRSEDTAVYYCIRYDYDRGMDYWGQGTLVTVSS
VL: DIQMTQSPSSLSASVGDRVTITCRASEDIYYRLAWYQQKPGNAPKLLISGATALETGVPSRFSGSGSGKDYTLTISSLQPEDIATYYCQHYWNIPWTFGQGTKVEIK
modifications: humanized antibody 3C11 heavy chain variable region 04; humanized antibody 3C11 light chain variable region 03
B6: 1CP-118: humanized anti-CDCP1 antibody produced by 8E5; VH SEQ ID NO: 349, VL SEQ ID NO: 358 (antibody, V domains shown)
VH: QVQLVQSGSELKKPGESVKVSCKASGYTLTDFSMHWVRQAPGQGLEWMGWINTETGAPTYADDFKGRFVLSLDTSVSTAYLQISSLKSEDTAVYYCSRGRDYDPHFDYWGQGTLVTVSS
VL: EIVLTQSPATLSLSPGERATLSCRASQSISDFLHWYQQKPGQSPRLLIKYASQSISGIPARFSGSGSGSDFTLTISSVEPEDFAVYYCQSAHSFPYTFGQGTKLEIK
modifications: humanized antibody 8E5 heavy chain variable region 03; humanized antibody 8E5 light chain variable region 02
B7: 1CP-123: humanized anti-CDCP1 antibody produced by 8E5; VH SEQ ID NO: 350, VL SEQ ID NO: 359 (antibody, V domains shown)
VH: QVQLQQSGSELKKPGESVKLSCKASGYTLTDFSMHWVRQAPGQGLKWMGWINTETGAPTYADDFKGRFVFSLDTSVSMAYLQISSLKSEDTAVYYCSRGRDYDPHFDYWGQGTLVTVSS
VL: EIVLTQSPATLSLSPGERATLSCRASQSISDFLHWYQQKSGQSPRLLIKYASQSISGIPARFSGSGSGSDFTLTISSVEPEDFAVYYCQSAHSFPYTFGQGTKLEIK
modifications: humanized antibody 8E5 heavy chain variable region 04; humanized antibody 8E5 light chain variable region 03
B8: 1CP-119: humanized anti-CDCP1 antibody produced by 8E5; VH SEQ ID NO: 350, VL SEQ ID NO: 358 (antibody, V domains shown)
VH: QVQLQQSGSELKKPGESVKLSCKASGYTLTDFSMHWVRQAPGQGLKWMGWINTETGAPTYADDFKGRFVFSLDTSVSMAYLQISSLKSEDTAVYYCSRGRDYDPHFDYWGQGTLVTVSS
VL: EIVLTQSPATLSLSPGERATLSCRASQSISDFLHWYQQKPGQSPRLLIKYASQSISGIPARFSGSGSGSDFTLTISSVEPEDFAVYYCQSAHSFPYTFGQGTKLEIK
modifications: humanized antibody 8E5 heavy chain variable region 04; humanized antibody 8E5 light chain variable region 02
B9: 1CP-122: humanized anti-CDCP1 antibody produced by 8E5; VH SEQ ID NO: 349, VL SEQ ID NO: 359 (antibody, V domains shown)
VH: QVQLVQSGSELKKPGESVKVSCKASGYTLTDFSMHWVRQAPGQGLEWMGWINTETGAPTYADDFKGRFVLSLDTSVSTAYLQISSLKSEDTAVYYCSRGRDYDPHFDYWGQGTLVTVSS
VL: EIVLTQSPATLSLSPGERATLSCRASQSISDFLHWYQQKSGQSPRLLIKYASQSISGIPARFSGSGSGSDFTLTISSVEPEDFAVYYCQSAHSFPYTFGQGTKLEIK
modifications: humanized antibody 8E5 heavy chain variable region 03; humanized antibody 8E5 light chain variable region 03
B10: 1CP-120: humanized anti-CDCP1 antibody produced by 8E5; VH SEQ ID NO: 347, VL SEQ ID NO: 359 (antibody, V domains shown)
VH: QVQLVQSGSELKKPGASVKVSCKASGYTLTDFSMHWVRQAPGQGLEWMGWINTETGAPTYADDFKGRFVFSLDTSVSTAYLQISSLKAEDTAVYYCSRGRDYDPHFDYWGQGTLVTVSS
VL: EIVLTQSPATLSLSPGERATLSCRASQSISDFLHWYQQKSGQSPRLLIKYASQSISGIPARFSGSGSGSDFTLTISSVEPEDFAVYYCQSAHSFPYTFGQGTKLEIK
modifications: humanized antibody 8E5 heavy chain variable region 01; humanized antibody 8E5 light chain variable region 03

The target in this test is T1, HuCDCP1-C. Put plainly: Caterra affinity of humanized anti-CDCP1 antibodies. Type of test: binding. The settings on record: HuCDCP1-C 2 μg/ml immobilized. How it is done:
The humanized anti-CDCP1 antibodies obtained from Example 11 were subjected to gene cloning, constructed into pTT5 expression vector for a small amount of expression in CHO cells (Expi-CHOS: Gibco A29127), and purified with an Fc affinity column (AT Protein A Diamond Plus. No. AA402312). Antibody purity was analyzed by HPLC and determined by Nanodrop. High-throughput affinity assay was carried out for a small amount of antibodies by Caterra.
Turning to B1, the “ka” value stood at 205000 M⁻¹ s⁻¹ and the “kd” value turned out to be 0.00198 s⁻¹.

Take B2: the “ka” value was 140000 M⁻¹ s⁻¹ and the “kd” value was found to be 1e-05 s⁻¹.

B3: the “ka” value was found to be 183000 M⁻¹ s⁻¹ and the “kd” value is 1e-05 s⁻¹.

As for B4, the “ka” value worked out at 191000 M⁻¹ s⁻¹ and the “kd” value was 0.002 s⁻¹.

Take B5: the “ka” value is 249000 M⁻¹ s⁻¹ and the “kd” value stood at 0.0012 s⁻¹.

Regarding B6, the “ka” value amounted to 168000 M⁻¹ s⁻¹ and the “kd” value came to 0.00225 s⁻¹.

For the molecule B7, the “ka” value was 199000 M⁻¹ s⁻¹ and the “kd” value is 0.00227 s⁻¹.

For the molecule B8, the “ka” value worked out at 226000 M⁻¹ s⁻¹ and the “kd” value was determined as 0.00124 s⁻¹.

As for B9, the “ka” value was 167000 M⁻¹ s⁻¹ and the “kd” value was found to be 0.00209 s⁻¹.

Regarding B10, the “ka” value was 139000 M⁻¹ s⁻¹ and the “kd” value worked out at 1.7e-05 s⁻¹.
